Measurements: the supplement of paper PMC9112550, “Optimization of the antimicrobial peptide Bac7 by deep mutational scanning” (BMC Biology, 2022)

tested on: Escherichia coli TOP10; experiment: shrunken log2 fold change of peptide-encoding DNA abundance (4.5 h post-induction vs induction); higher = less antimicrobial activity (less host growth inhibition); conditions: time post-induction: 4.5 h; library: site-saturation at positions 5, 18, 19, 20
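Further: peptides expressed intracellularly from a pBAD plasmid library in pooled LB shake-flask culture, induced with 0.3% L-arabinose, DNA abundance read by NGS, three biological replicates, DESeq2 with apeglm shrinkage.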

| Sequence | shrunken log2 fold change |
| --- | --- |
| RRIRGRPPRLPRPRPRPCVGPRP | 0.729 |
| RRIRNRPPRLPRPRPRPLAEPRP | 0.108 |
| RRIRERPPRLPRPRPRPWCHPRP | -0.229 |
| RRIRMRPPRLPRPRPRPEFQPRP | 0.372 |
| RRIRMRPPRLPRPRPRPSNMPRP | -0.0931 |
| RRIRHRPPRLPRPRPRPYSAPRP | 0.0254 |
| RRIRGRPPRLPRPRPRPINYPRP | 0.000824 |
| RRIRSRPPRLPRPRPRPELWPRP | 0.743 |
| RRIRRRPPRLPRPRPRPMNLPRP | 0.0545 |
| RRIRFRPPRLPRPRPRPSIPPRP | -0.602 |
| RRIRERPPRLPRPRPRPTTSPRP | -0.147 |
| RRIRFRPPRLPRPRPRPYELPRP | 0.0447 |
| RRIRHRPPRLPRPRPRPRWWPRP | 0.00789 |
| RRIRDRPPRLPRPRPRPHQPPRP | -0.017 |
| RRIRFRPPRLPRPRPRPPYAPRP | 0.0335 |
| RRIRVRPPRLPRPRPRPDMGPRP | -0.0133 |
| RRIRCRPPRLPRPRPRPLGAPRP | 0.444 |
| RRIRARPPRLPRPRPRPPSMPRP | 0.425 |
| RRIRKRPPRLPRPRPRPVVWPRP | 0.602 |
| RRIRWRPPRLPRPRPRPEECPRP | 0.158 |
| RRIRIRPPRLPRPRPRPYNRPRP | -0.01 |
| RRIRIRPPRLPRPRPRPDSFPRP | 0.0771 |

| Sequence | shrunken log2 fold change |
| --- | --- |
| RRIRNRPPRLPRPRPRPVRFPRP | 0.0789 |
| RRIRIRPPRLPRPRPRPYVEPRP | -0.0566 |
| RRIRMRPPRLPRPRPRPGWRPRP | 1.15 |
| RRIRVRPPRLPRPRPRPIYTPRP | -0.279 |
| RRIRLRPPRLPRPRPRPEWGPRP | 0.504 |
| RRIRTRPPRLPRPRPRPGCHPRP | -0.136 |
| RRIRSRPPRLPRPRPRPCCLPRP | -0.125 |
| RRIRWRPPRLPRPRPRPKLVPRP | 0.00348 |
| RRIRYRPPRLPRPRPRPDFCPRP | -0.228 |
| RRIRWRPPRLPRPRPRPCGVPRP | 0.0164 |
| RRIRDRPPRLPRPRPRPPGHPRP | 0.0994 |
| RRIRIRPPRLPRPRPRPMFCPRP | -0.345 |
| RRIRRRPPRLPRPRPRPQDSPRP | -0.0402 |
| RRIRARPPRLPRPRPRPWDVPRP | 0.246 |
| RRIRGRPPRLPRPRPRPTCSPRP | 0.991 |
| RRIRPRPPRLPRPRPRPEGSPRP | 0.0654 |
| RRIRTRPPRLPRPRPRPMWYPRP | -0.602 |
| RRIRGRPPRLPRPRPRPFISPRP | 0.183 |
| RRIRGRPPRLPRPRPRPVSKPRP | 0.276 |
| RRIRVRPPRLPRPRPRPWECPRP | -0.00141 |
| RRIRRRPPRLPRPRPRPLDFPRP | 0.184 |
| RRIRDRPPRLPRPRPRPLVRPRP | 0.223 |

| Sequence | shrunken log2 fold change |
| --- | --- |
| RRIRYRPPRLPRPRPRPRMDPRP | -0.0437 |
| RRIRTRPPRLPRPRPRPLCRPRP | -0.13 |
| RRIRERPPRLPRPRPRPELHPRP | 0.0652 |
| RRIRSRPPRLPRPRPRPEYQPRP | 0.0227 |
| RRIRIRPPRLPRPRPRPFPRPRP | -0.123 |
| RRIRCRPPRLPRPRPRPTCCPRP | -0.354 |
| RRIRQRPPRLPRPRPRPDHYPRP | -0.213 |
| RRIRMRPPRLPRPRPRPLGNPRP | -0.0024 |
| RRIRLRPPRLPRPRPRPHFRPRP | -0.102 |
| RRIRGRPPRLPRPRPRPCDDPRP | 1.24 |
| RRIRDRPPRLPRPRPRPMIDPRP | 0.141 |
| RRIRDRPPRLPRPRPRPQEFPRP | -0.0529 |
| RRIRSRPPRLPRPRPRPWDHPRP | -0.143 |
| RRIRARPPRLPRPRPRPDTRPRP | 0.0596 |
| RRIRFRPPRLPRPRPRPWPTPRP | -0.0457 |
| RRIRLRPPRLPRPRPRPYMEPRP | 0.039 |
| RRIRDRPPRLPRPRPRPVLAPRP | 0.805 |
| RRIRRRPPRLPRPRPRPWDSPRP | 0.0548 |
| RRIRDRPPRLPRPRPRPMIIPRP | 0.248 |
| RRIRPRPPRLPRPRPRPYPNPRP | -0.159 |
| RRIRIRPPRLPRPRPRPFNTPRP | -0.191 |
| RRIRWRPPRLPRPRPRPYASPRP | -0.121 |

| Sequence | shrunken log2 fold change |
| --- | --- |
| RRIRNRPPRLPRPRPRPCFQPRP | 0.012 |
| RRIRPRPPRLPRPRPRPKDSPRP | -0.157 |
| RRIRQRPPRLPRPRPRPEKDPRP | 0.343 |
| RRIRMRPPRLPRPRPRPTMNPRP | 0.0381 |
| RRIRLRPPRLPRPRPRPARPPRP | 0.449 |
| RRIRYRPPRLPRPRPRPIEEPRP | 0.00911 |
| RRIRKRPPRLPRPRPRPTIGPRP | 0.0992 |
| RRIRLRPPRLPRPRPRPLSSPRP | -0.0447 |
| RRIRWRPPRLPRPRPRPNTKPRP | -0.187 |
| RRIRIRPPRLPRPRPRPIWCPRP | -0.00146 |
| RRIRFRPPRLPRPRPRPNCEPRP | 0.194 |
| RRIRGRPPRLPRPRPRPVRKPRP | 1.72 |
| RRIRPRPPRLPRPRPRPTQGPRP | 0.753 |
| RRIRSRPPRLPRPRPRPWYEPRP | -0.0183 |
| RRIRTRPPRLPRPRPRPAHAPRP | 0.0759 |
| RRIRGRPPRLPRPRPRPMAIPRP | 0.0503 |
| RRIRERPPRLPRPRPRPHQMPRP | -0.0399 |
| RRIRIRPPRLPRPRPRPFNMPRP | -2.55 |
| RRIRMRPPRLPRPRPRPPRPPRP | 1.75 |
| RRIRPRPPRLPRPRPRPTNVPRP | -0.0325 |
| RRIRQRPPRLPRPRPRPRAFPRP | 0.317 |
| RRIRNRPPRLPRPRPRPGQPPRP | 0.0308 |

| Sequence | shrunken log2 fold change |
| --- | --- |
| RRIRDRPPRLPRPRPRPIWTPRP | 0.0557 |
| RRIRSRPPRLPRPRPRPPFGPRP | 0.398 |
| RRIRRRPPRLPRPRPRPDWMPRP | 0.0919 |
| RRIRSRPPRLPRPRPRPEEKPRP | 0.206 |
| RRIRKRPPRLPRPRPRPQPPPRP | 0.672 |
| RRIRQRPPRLPRPRPRPWTSPRP | 0.0602 |
| RRIRSRPPRLPRPRPRPHAEPRP | 0.156 |
| RRIRERPPRLPRPRPRPCFLPRP | -0.647 |
| RRIRGRPPRLPRPRPRPYDHPRP | -0.181 |
| RRIRSRPPRLPRPRPRPGLFPRP | 0.163 |
| RRIRIRPPRLPRPRPRPFTSPRP | -0.475 |
| RRIRTRPPRLPRPRPRPHMKPRP | -0.712 |
| RRIRPRPPRLPRPRPRPLGMPRP | -0.0753 |
| RRIRQRPPRLPRPRPRPMTYPRP | -0.0223 |
| RRIRTRPPRLPRPRPRPENSPRP | 0.032 |
| RRIRMRPPRLPRPRPRPEAHPRP | 3.52 |
| RRIRLRPPRLPRPRPRPHWVPRP | -0.189 |
| RRIRDRPPRLPRPRPRPCHEPRP | -0.0135 |
| RRIRDRPPRLPRPRPRPQEIPRP | -0.00905 |
| RRIRDRPPRLPRPRPRPWKWPRP | 0.0155 |
| RRIRLRPPRLPRPRPRPSMSPRP | 0.221 |
